Measurements: patent publication US11819540B2, “Methods for treating and preventing neutrophil-derived net toxicity and thrombosis” (CHILDREN'S MEDICAL CENTER CORPORATION, priority 2011, dated 2023)
“Also recorded” adds a separate entry of the source.

Tested on: TRALI in BALB/c mice
Experiment: Two-event (LPS + anti-H-2Kd mAb) TRALI model
Assay type: in vivo, mouse
Protocol: In order to determine the effect of anti-NET compounds as a treatment for TRALI, a mouse model of the 2-hit TRALI model was utilized. BALB/c male mice (8-10 week-old) were primed with an intraperitoneal injection of lipopolysaccharide (LPS) (0.1 or 0.5 mg/kg) 24 hours prior to challenge with anti-H2K^dmAb (clone 34-1-2s1, 1 mg/kg) or isotype control injected retro-orbitally. Before each injection mice were shortly anesthetized by inhalation of isoflurane. To measure the effect of DNaseI treatment on mice experiencing TRALI, mice received intranasal DNaseI (50 μg/mouse, 1 μg/ul) or 50 μl of the buffer-vehicle 10 minutes prior to the antibody injection.
The model was adapted from Looney et al. (2009).^20 Male BALB/c mice (8-10 week old) were primed with an i.p. injection of LPS (0.1 or 0.5 mg/kg, as indicated in the text) 24 hours prior to challenge with anti-H-2K^d mAb (clone 34-1-2s, 1 mg/kg) or isotype control injected retro-orbitally. In experiments involving DNase 1 treatment, mice that were injected with both LPS and the anti-H-2K^d mAb received i.n. DNase 1 (PULMOZYME®, Genentech, 50 μg/mouse, 1 μg/ul) 10 minutes before or 90 minutes after antibody injection. Control TRALI mice were injected with 50 μl of the DNase 1 vehicle-buffer in DNase 1 experiments. Blood collection, lung harvesting and arterial oxygen saturation measurements were all performed 2 hours after antibody injection. No event of TRALI-related death was recorded under these conditions in any of the treated mice.
Rectal temperatures were measured as an indicator of shock-like condition 2 hours post anti-H-2K^d infusion using a rectal temperature probe (MOUSEOX PLUS® system, STARR Life Sciences) connected to a POWERLAB™ data acquisition system (ADInstruments, USA).
Mouse peripheral blood counts were measured from EDTA (ethylenediaminetetraacetic acid)-anti-coagulated blood with a HEMAVET™ 950 veterinary hematology analyzer (Drew Scientific). This blood counter uses two different currents to analyze the cells. A low voltage current determines the volume and the number of cells (Coulter Impedance principle) and a high voltage current that passes through the cells generates information on their internal structure such as nucleus, fluid, granules and vacuoles.
Mice were sacrificed and intubated with a 24-gauge cannula after their tracheas were surgically isolated. The lungs were flushed three times with 0.8 ml of sterile PBS. BAL fluids were centrifuged for 5 minutes at 800 g. Protein concentration was quantified in the supernatant using the bicinchoninic acid method.
Blood arterial oxygen saturation was recorded 2 hours after anti-H-2K^d antibody injection, using a small rodent oxymeter sensor (MOUSE^OX™, STARR Life Sciences) mounted on the collar of each tested mouse. The 2 hour endpoint was used as per the model published by Looney and colleagues in 2009.^20-22
Mouse lungs were fixed by intratracheal infusion of 1.5% formaldehyde/1.5% glutaraldehyde in sodium cacodylate buffer (pH 7.35), excised and bathed in the same solution for 2 hours at 4° C. The fixed lungs were sliced into 0.5 mm sections; the sections were washed extensively in distilled water, frozen on a liquid-helium cooled copper block, freeze-dried at −80° C., and coated with 2 nm of platinum at a 45° angle with rotation and 10 nm of carbon without rotation. Tissue was removed from the metal casting using bleach (Austin's A-1-5.25% sodium hypochlorite), washed and picked up on formvar-coated 200 mesh copper grids. Grids were photographed in a JEOL-1200 EX electron microscope at 100 kV.

[1] = intranasal DNaseI 50 μg/mouse 10 min prior to antibody

B1: rhDNase-1: recombinant human DNase-1 (Dornase alpha, Pulmozyme, Genentech) (protein, UniProt P24855 23-282, looked up)
Deoxyribonuclease-1: LKIAAFNIQTFGETKMSNATLVSYIVQILSRYDIALVQEVRDSHLTAVGKLLDNLNQDAPDTYHYVVSEPLGRNSYKERYLFVYRPDQVSAVDSYYYDDGCEPCGNDTFNREPAIVRFFSRFTEVREFAIVPLHAAPGDAVAEIDALYDVYLDVQEKWGLEDVMLMGDFNAGCSYVRPSQWSSIRLWTSPTFQWLIPDSADTTATPTHCAYDRIVVAGMLLRGAVVPDSALPFNFQAAYGLSDQLAQAISDHYPVEVMLK
rectal temperature (shock-like condition) (2 hours after mAb infusion, DNase 1 as prophylaxis or treatment): normal | arterial oxygen saturation (mean and minimum) (DNase 1 i.n. 90 minutes after onset of TRALI (Post)): improves arterial oxygen saturation; also recorded: succeeded in correcting the defect in blood oxygenation | arterial oxygen saturation (mean and minimum) (DNase 1 i.n. pretreatment 10 min before antibody (Pre)): succeeded in correcting the defect in blood oxygenation; also recorded: more stable arterial blood oxygen saturation and improved transient hypoxia | down spikes in blood arterial oxygen saturation (transient hypoxia) (DNase 1 i.n. pretreatment vs vehicle buffer): significantly attenuated | TRALI outcome (inhalation, before or after TRALI onset): had a positive effect | fibrous material (NETs) in alveoli, electron microscopy (intranasal DNase 1 50 μg/mouse 10 min prior to antibody injection): absent; also recorded: prevents their alveolar accumulation; also recorded: no fibrous material could be detected | TRALI-induced decrease of platelet counts [1]: diminished | TRALI-induced increase of BAL protein levels [1]: diminished
